In the assay the target is T1, biotinylated natural Ara h 2 (Arachis hypogaea (peanut), natural …, UniProt Q6PSU2, biotin (position not given)).
T1 construct: Ara h 2, peanut allergen, 'natural' (not recombinant) protein; Natural Ara h 2 from peanut may be a mixture of isoforms; also called Biotin Natural Ara h 2; source: bought: InBio (biotinylated natural Ara h 2)
The assay can be described thus: BLI; in-tandem epitope binning; biotinylated natural Ara h 2 loaded on streptavidin sensors; primary mAbs 10 ug/mL, secondary mAbs 5 ug/mL in kinetics buffer (Dulbecco's PBS, 1% BSA, 0.02% Tween-20); Octet R2. The note with it: both partners purified. (In general: Biolayer interferometry detects binding as a change in optical thickness at a sensor tip.)

T1 sequence (Q6PSU2 whole entry, looked up, canonical isoform): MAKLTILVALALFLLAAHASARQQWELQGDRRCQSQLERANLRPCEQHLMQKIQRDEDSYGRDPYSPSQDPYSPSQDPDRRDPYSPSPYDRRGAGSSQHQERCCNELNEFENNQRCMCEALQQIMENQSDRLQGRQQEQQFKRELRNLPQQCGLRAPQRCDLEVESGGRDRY

B1: 13T5 (monoclonal Ara h 2 specific antibody, Epitope 2) (antibody, V domains shown)
VH: QVQLQESGPGLVKPSETLSLTCTVSGGSMSSYYWGWIRQPAGRGLEWIGRIFTTGSTIYNASLNSRVSMSVDTSKNQFSLKLTSVTAADTALYFCVRDRRGRSHDSNWYWYFDLWGRGTLVTVSS
VL: DIVMTQSPSSLSASVGDRVIITCRTSQTLSRNLNWYQQKPGEAPKLLIYGASTLQSGVPSRFTGSGSGTDFTLIISSLQPEDFATYYCQQSDNTPRTFGQGTKVEIK
As for B1, the binding result was “binds”.
